# Source: IntAct's records for PubMed 16837009
# B1: Serine/threonine-protein kinase PAK 2 (Homo sapiens), Q13177 (parent)
# chain: MSDNGELEDKPPAPPVRMSSTIFSTGGKDPLSANHSLKPLPSVPEEKKPRHKIISIFSGTEKGSKKKEKERPEISPPSDFEHTIHVGFDAVTGEFTGMPEQWARLLQTSNITKLEQKKNPQAVLDVLKFYDSNTVKQKYLSFTPPEKDGFPSGTPALNAKGTEAPAVVTEEEDDDEETAPPVIAPRPDHTKSIYTRSVIDPVPAPVGDSHVDGAAKSLDKQKKKTKMTDEEIMEKLRTIVSIGDPKKKYTRYEKIGQGASGTVFTATDVALGQEVAIKQINLQKQPKKELIINEILVMKELKNPNIVNFLDSYLVGDELFVVMEYLAGGSLTDVVTETCMDEAQIAAVCRECLQALEFLHANQVIHRDIKSDNVLLGMEGSVKLTDFGFCAQITPEQSKRSTMVGTPYWMAPEVVTRKAYGPKVDIWSLGIMAIEMVEGEPPYLNENPLRALYLIATNGTPELQNPEKLSPIFRDFLNRCLEMDVEKRGSAKELLQHPFLKLAKPLSSLTPLIMAAKEAMKSNR
# Variants of: B1
# Details: with limk1_human LIMK1, P53667
# Sequence of limk1_human LIMK1, P53667 (P53667 whole entry, looked up): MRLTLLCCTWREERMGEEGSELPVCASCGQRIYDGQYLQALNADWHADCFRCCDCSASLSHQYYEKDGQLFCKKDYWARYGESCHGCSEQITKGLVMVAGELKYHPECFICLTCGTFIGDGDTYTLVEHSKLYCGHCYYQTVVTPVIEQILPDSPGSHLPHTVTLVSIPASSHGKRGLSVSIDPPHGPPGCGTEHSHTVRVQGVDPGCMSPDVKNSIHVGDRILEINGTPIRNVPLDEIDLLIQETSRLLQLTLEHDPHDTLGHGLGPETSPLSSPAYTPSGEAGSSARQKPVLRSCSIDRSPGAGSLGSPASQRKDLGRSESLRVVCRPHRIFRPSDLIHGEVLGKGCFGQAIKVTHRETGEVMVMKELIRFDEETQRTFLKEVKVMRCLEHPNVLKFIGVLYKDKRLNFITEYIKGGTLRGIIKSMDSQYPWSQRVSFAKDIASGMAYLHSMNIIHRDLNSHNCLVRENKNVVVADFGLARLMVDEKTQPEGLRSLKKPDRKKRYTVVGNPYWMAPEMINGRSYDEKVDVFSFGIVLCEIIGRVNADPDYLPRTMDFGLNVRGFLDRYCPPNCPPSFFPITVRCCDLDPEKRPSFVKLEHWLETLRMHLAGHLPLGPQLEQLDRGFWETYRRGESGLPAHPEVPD
row,effect of a mutation on the interaction,Variant
1,increasing interaction,L449Q
